In article PMC5651819, “AtSPX1 affects the AtPHR1–DNA-binding equilibrium by binding monomeric AtPHR1 in solution” (Biochemical Journal, 2017) one finds Kd data, which are given here for one sequence.

This data set deals with MBP-AtdPHR1 (Arabidopsis thaliana) (UniProt Q94CL7). The data set is described as follows: SPR. Conditions: SPR (Biacore 3000, SA chip, ~500 RU DNA): 10 mM HEPES pH 7.5, 200 mM NaCl, 0.01% Surfactant P-20, 25 C, 40 ul/min, with or without Pi/InsP6. In general terms: SPR reads the build-up and loss of mass on a sensor chip optically.
Chain of MBP-AtdPHR1 (Arabidopsis thaliana) (Q94CL7 208-362): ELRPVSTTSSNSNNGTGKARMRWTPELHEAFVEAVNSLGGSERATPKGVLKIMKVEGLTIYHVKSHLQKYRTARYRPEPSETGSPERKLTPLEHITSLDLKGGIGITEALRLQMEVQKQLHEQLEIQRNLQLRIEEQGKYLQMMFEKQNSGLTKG

With “ACACTTCGTCACGCTAAAGCTAAGCATATCCGCTTTCATATTCCTTTACACAAC (double strand) [1x P1BS probe]”, the Kd was 707 nM. That is a sub-micromolar value.

What is called Kd is the free concentration of one partner at which half of the binding sites on the other are occupied at equilibrium, for simple one-to-one binding. Higher therefore signals weaker binding.
